Where a chain is given by its changes, count along the chain named. Numbers in names are those of the source.
T1: PUF4 RNA-binding domain (Saccharomyces cerevisiae, UniProt P25339 537-888)
T1 sequence: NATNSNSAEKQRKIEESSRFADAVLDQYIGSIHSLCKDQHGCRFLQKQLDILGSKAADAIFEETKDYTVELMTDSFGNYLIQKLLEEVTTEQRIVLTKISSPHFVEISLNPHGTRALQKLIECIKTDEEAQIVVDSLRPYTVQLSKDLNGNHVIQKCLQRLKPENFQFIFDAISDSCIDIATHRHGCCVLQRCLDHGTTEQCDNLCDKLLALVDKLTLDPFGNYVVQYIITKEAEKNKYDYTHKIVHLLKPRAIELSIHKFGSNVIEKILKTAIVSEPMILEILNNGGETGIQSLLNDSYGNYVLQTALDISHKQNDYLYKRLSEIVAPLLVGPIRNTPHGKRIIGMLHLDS

B1: Id_ii_S2_P5E.4_K5.3_C5.2_[C-2A]_[T-1A]_H5.3_A5.1_F5.1_T5.2_[A12T] (ssRNA)
RNA: UUUGAUUAAUAUGAUAUCGUUCUUUCUAAACACUUAUUAUUUUCUUUCUCGAUAUCAUAUUAAUCUUU
B2: Id_ii_S2_P5E.4_K5.3_C5.2_[T-1C]_H5.3_A5.1_F5.1_T5.2 (ssRNA)
RNA: B1 RNA with A28C, A29C, U41A
B3: Id_ii_S2_P5E.4_K5.3_C5.2_[C-2A]_H5.3_A5.1_F5.1_T5.2_[T11C]_[A12T] (ssRNA)
RNA: B1 RNA with A29U, U40C
B4: Id_ii_S2_P5E.4_K5.3_C5.2_[C-2A]_H5.3_A5.1_F5.1_T5.2_[T11C]_[A12G] (ssRNA)
RNA: B1 RNA with A29U, U40C, U41G
B5: Id_ii_S2_P5E.4_K5.3_C5.2_H5.3_A5.1_F5.1_T5.2_[T11G]_[A12C] (ssRNA)
RNA: B1 RNA with A28C, A29U, U40G, U41C
B6: Id_ii_S2_P5E.4_K5.3_C5.2_H5.3_A5.1_F5.1_T5.2_[T11C]_[A12C] (ssRNA)
RNA: B1 RNA with A28C, A29U, U40C, U41C
B7: Id_ii_S2_P5E.4_K5.3_C5.2_[C-2A]_H5.3_A5.1_F5.1_T5.2_[T11A] (ssRNA)
RNA: B1 RNA with A29U, U40A, U41A
B8: Id_ii_S2_P5E.4_K5.3_C5.2_[T-1C]_H5.3_A5.1_F5.1_T5.2_[A12T] (ssRNA)
RNA: B1 RNA with A28C, A29C
B9: Id_ii_S2_P5E.4_K5.3_C5.2_[T-1C]_H5.3_A5.1_F5.1_T5.2_[A12C] (ssRNA)
RNA: B1 RNA with A28C, A29C, U41C
B10: Id_ii_S2_P5E.4_K5.3_C5.2_H5.3_A5.1_F5.1_T5.2_[A12T] (ssRNA)
RNA: B1 RNA with A28C, A29U
B11: Id_ii_S2_P5E.4_K5.3_C5.2_[T-1C]_H5.3_A5.1_F5.1_T5.2_[T11A] (ssRNA)
RNA: B1 RNA with A28C, A29C, U40A, U41A
B12: Id_ii_S2_P5E.4_K5.3_C5.2_[C-2A]_H5.3_A5.1_F5.1_T5.2 (ssRNA)
RNA: B1 RNA with A29U, U41A
B13: Id_ii_S2_P5E.4_K5.3_C5.2_[C-2A]_H5.3_A5.1_F5.1_T5.2_[T11G]_[A12C] (ssRNA)
RNA: B1 RNA with A29U, U40G, U41C
B14: Id_ii_S2_P5E.4_K5.3_C5.2_[T-1C]_H5.3_A5.1_F5.1_T5.2_[T11G]_[A12C] (ssRNA)
RNA: B1 RNA with A28C, A29C, U40G, U41C
B15: Id_ii_S2_P5E.4_K5.3_C5.2_[C-2A]_H5.3_A5.1_F5.1_T5.2_[T11C] (ssRNA)
RNA: B1 RNA with A29U, U40C, U41A
B16: Id_ii_S2_P5E.4_K5.3_C5.2_[C-2A]_H5.3_A5.1_F5.1_T5.2_[A12G] (ssRNA)
RNA: B1 RNA with A29U, U41G
B17: Id_ii_S2_P5E.4_K5.3_C5.2_[T-1G]_H5.3_A5.1_F5.1_T5.2 (ssRNA)
RNA: B1 RNA with A28C, A29G, U41A
B18: Id_ii_S2_P5E.4_K5.3_C5.2_[T-1G]_H5.3_A5.1_F5.1_T5.2_[T11C]_[A12T] (ssRNA)
RNA: B1 RNA with A28C, A29G, U40C
B19: Id_ii_S2_P5E.4_K5.3_C5.2_[T-1A]_H5.3_A5.1_F5.1_T5.2_[A12T] (ssRNA)
RNA: B1 RNA with A28C
B20: Id_ii_S2_P5E.4_K5.3_C5.2_[T-1A]_H5.3_A5.1_F5.1_T5.2_[T11C]_[A12C] (ssRNA)
RNA: B1 RNA with A28C, U40C, U41C
B21: Id_ii_S2_P5E.4_K5.3_C5.2_[C-2A]_H5.3_A5.1_F5.1_T5.2_[T11A]_[A12C] (ssRNA)
RNA: B1 RNA with A29U, U40A, U41C
B22: Id_ii_S2_P5E.4_K5.3_C5.2_[T-1C]_H5.3_A5.1_F5.1_T5.2_[T11C]_[A12C] (ssRNA)
RNA: B1 RNA with A28C, A29C, U40C, U41C
B23: Id_ii_S2_P5E.4_K5.3_C5.2_[T-1A]_H5.3_A5.1_F5.1_T5.2_[T11C] (ssRNA)
RNA: B1 RNA with A28C, U40C, U41A
B24: Id_ii_S2_P5E.4_K5.3_C5.2_[C-2A]_H5.3_A5.1_F5.1_T5.2_[A12T] (ssRNA)
RNA: B1 RNA with A29U
B25: Id_ii_S2_P5E.4_K5.3_C5.2_H5.3_A5.1_F5.1_T5.2_[T11C] (ssRNA)
RNA: B1 RNA with A28C, A29U, U40C, U41A
B26: Id_ii_S2_P5E.4_K5.3_C5.2_[T-1C]_H5.3_A5.1_F5.1_T5.2_[T11C]_[A12G] (ssRNA)
RNA: B1 RNA with A28C, A29C, U40C, U41G
B27: Id_ii_S2_P5E.4_K5.3_C5.2_[T-1G]_H5.3_A5.1_F5.1_T5.2_[A12C] (ssRNA)
RNA: B1 RNA with A28C, A29G, U41C
B28: Id_ii_S2_P5E.4_K5.3_C5.2_[T-1G]_H5.3_A5.1_F5.1_T5.2_[A12T] (ssRNA)
RNA: B1 RNA with A28C, A29G
B29: Id_ii_S2_P5E.4_K5.3_C5.2_[C-2A]_H5.3_A5.1_F5.1_T5.2_[T11A]_[A12T] (ssRNA)
RNA: B1 RNA with A29U, U40A
B30: Id_ii_S2_P5E.4_K5.3_C5.2_H5.3_A5.1_F5.1_T5.2_[T11A]_[A12C] (ssRNA)
RNA: B1 RNA with A28C, A29U, U40A, U41C
B31: Id_ii_S2_P5E.4_K5.3_C5.2_[C-2A]_[T-1A]_H5.3_A5.1_F5.1_T5.2 (ssRNA)
RNA: B1 RNA with U41A
B32: Id_ii_S2_P5E.4_K5.3_C5.2_[T-1A]_H5.3_A5.1_F5.1_T5.2_[T11C]_[A12G] (ssRNA)
RNA: B1 RNA with A28C, U40C, U41G
B33: Id_ii_S2_P5E.4_K5.3_C5.2_[T-1A]_H5.3_A5.1_F5.1_T5.2_[A12C] (ssRNA)
RNA: B1 RNA with A28C, U41C
B34: Id_ii_S2_P5E.4_K5.3_C5.2_H5.3_A5.1_F5.1_T5.2 (ssRNA)
RNA: B1 RNA with A28C, A29U, U41A
B35: Id_ii_S2_P5E.4_K5.3_C5.2_[C-2A]_H5.3_A5.1_F5.1_T5.2_[A12C] (ssRNA)
RNA: B1 RNA with A29U, U41C
B36: Id_ii_S2_P5E.4_K5.3_C5.2_[T-1C]_H5.3_A5.1_F5.1_T5.2_[T11C] (ssRNA)
RNA: B1 RNA with A28C, A29C, U40C, U41A
B37: Id_ii_S2_P5E.4_K5.3_C5.2_H5.3_A5.1_F5.1_T5.2_[A12C] (ssRNA)
RNA: B1 RNA with A28C, A29U, U41C
B38: Id_ii_S2_P5E.4_K5.3_C5.2_[T-1G]_H5.3_A5.1_F5.1_T5.2_[T11C] (ssRNA)
RNA: B1 RNA with A28C, A29G, U40C, U41A
B39: Id_ii_S2_P5E.4_K5.3_C5.2_[T-1A]_H5.3_A5.1_F5.1_T5.2 (ssRNA)
RNA: B1 RNA with A28C, U41A
B40: Id_ii_S2_P5E.4_K5.3_C5.2_H5.3_A5.1_F5.1_T5.2_[T11A]_[A12T] (ssRNA)
RNA: B1 RNA with A28C, A29U, U40A
B41: Id_ii_S2_P5E.4_K5.3_C5.2_[T-1G]_H5.3_A5.1_F5.1_T5.2_[T11A]_[A12C] (ssRNA)
RNA: B1 RNA with A28C, A29G, U40A, U41C
B42: Id_ii_S2_P5E.4_K5.3_C5.2_[T-1A]_H5.3_A5.1_F5.1_T5.2_[T11A]_[A12T] (ssRNA)
RNA: B1 RNA with A28C, U40A
B43: Id_ii_S2_P5E.4_K5.3_C5.2_H5.3_A5.1_F5.1_T5.2_[T11C]_[A12T] (ssRNA)
RNA: B1 RNA with A28C, A29U, U40C
B44: Id_ii_S2_P5E.4_K5.3_C5.2_[C-2A]_H5.3_A5.1_F5.1_T5.2_[T11C]_[A12C] (ssRNA)
RNA: B1 RNA with A29U, U40C, U41C
B45: Id_ii_S2_P5E.4_K5.3_C5.2_[T-1A]_H5.3_A5.1_F5.1_T5.2_[T11C]_[A12T] (ssRNA)
RNA: B1 RNA with A28C, U40C

Target: T1, PUF4 RNA-binding domain
Assay: Mg; RNA-MaP; 20 mM Na-HEPES pH 7.4, 30 mM KOAc, 0.75 mM MgCl2, 0.1% Tween-20, 5% glycerol, 0.1 mg/mL BSA, 2 mM DTT; 25 C; 0.0125-409.6 nM protein
Details: tags: N-His6-TEV cleaved; C-SNAP kept, Cy3B-labelled; label: tethered on chip by stalled RNA polymerase

| Binder | Kd [nM] |
| --- | --- |
| ACAAACGGUAUAUAUAACACAAAC (ssRNA) [Id_ii_S3_P3E.3_K3.2_C3.2_[C-2G]_[T-1G]_H3.2_A3.1_F3.1_T3.2_[T9A]_[A10C]] | 509 |
| UCUCUUUGUUUUAUUAUCUCUU (ssRNA) [Ia_S1_P5E.1_K5.1_C5.1_H5.1_[A4T]_A5.1_F5.1_T5.1] | 24.7 |
| ACAAACGCUAUAUAUACUACAAAC (ssRNA) [Id_ii_S3_P3E.3_K3.2_C3.2_[C-2G]_[T-1C]_H3.2_A3.1_F3.1_T3.2_[T9C]_[A10T]] | 34.2 |
| ACAAACGCUAUAUAUAACACAAAC (ssRNA) [Id_ii_S3_P3E.3_K3.2_C3.2_[C-2G]_[T-1C]_H3.2_A3.1_F3.1_T3.2_[T9A]_[A10C]] | 1130 |
| UCUCUUUGUAUAAUCAUCUCUU (ssRNA) [Ic_S1_P5E.1_K5.1_C5.1_H5.1_A5.1_[T6A]_F5.1_[T9C]_T5.1] | 19.7 |
| UCUCUUUGUAUAAUAAUCUCUU (ssRNA) [Ib_S1_P5E.1_K5.1_C5.1_H5.1_A5.1_[T6A]_F5.1_[T9A]_T5.1] | 1.68 |
| ACAAACGCUAUAUAUAUUACAAAC (ssRNA) [Id_ii_S3_P3E.3_K3.2_C3.2_[C-2G]_[T-1C]_H3.2_A3.1_F3.1_T3.2_[A10T]] | 45.1 |
| ACAAACGGUAUAUAUAUGACAAAC (ssRNA) [Id_ii_S3_P3E.3_K3.2_C3.2_[C-2G]_[T-1G]_H3.2_A3.1_F3.1_T3.2_[A10G]] | 552 |
| UCUCUUUGUAUUCUGAUCUCUU (ssRNA) [Ib_S1_P5E.1_K5.1_C5.1_H5.1_A5.1_[A7C]_F5.1_[T9G]_T5.1] | 60.1 |
| ACAAACGCUAUAUAUAUCACAAAC (ssRNA) [Id_ii_S3_P3E.3_K3.2_C3.2_[C-2G]_[T-1C]_H3.2_A3.1_F3.1_T3.2_[A10C]] | 836 |
| UCUCUUUGUAUUUUGAUCUCUU (ssRNA) [Ib_S1_P5E.1_K5.1_C5.1_H5.1_A5.1_[A7T]_F5.1_[T9G]_T5.1] | 17.1 |
| ACAAACGGUAUAUAUAGAACAAAC (ssRNA) [Id_ii_S3_P3E.3_K3.2_C3.2_[C-2G]_[T-1G]_H3.2_A3.1_F3.1_T3.2_[T9G]] | 128 |
| UCUCUUUGUAUCAUAAUCUCUU (ssRNA) [Ib_S1_P5E.1_K5.1_C5.1_H5.1_A5.1_[T6C]_F5.1_[T9A]_T5.1] | 2.4 |
| B1 | > 2300 |
| B2 | 651 |
| B3 | 117 |
| B4 | 674 |
| B5 | > 2300 |
| B6 | > 2300 |
| B7 | 208 |

| Binder | Kd [nM] |
| --- | --- |
| B8 | 1720 |
| B9 | > 2300 |
| B10 | 2240 |
| B11 | > 2300 |
| B12 | 674 |
| B13 | 902 |
| B14 | > 2300 |
| B15 | 136 |
| B16 | 1310 |
| B17 | 831 |
| B18 | > 2300 |
| B19 | > 2300 |
| B20 | > 2300 |
| B21 | 161 |
| B22 | > 2300 |
| B23 | > 2300 |
| B24 | 97.8 |
| B25 | > 2300 |
| B26 | > 2300 |
| B27 | > 2300 |

| Binder | Kd [nM] |
| --- | --- |
| B28 | > 2300 |
| B29 | 129 |
| B30 | > 2300 |
| B31 | 875 |
| B32 | > 2300 |
| B33 | > 2300 |
| B34 | 548 |
| B35 | 131 |
| B36 | > 2300 |
| B37 | > 2300 |
| B38 | > 2300 |
| B39 | 591 |
| B40 | > 2300 |
| B41 | > 2300 |
| B42 | > 2300 |
| B43 | > 2300 |
| B44 | 110 |
| B45 | > 2300 |

— PMC9352680, “A comprehensive thermodynamic model for RNA binding by the Saccharomyces cerevisiae Pumilio protein PUF4”
